Test results from the supplement of paper PMC12338614.
± gives the uncertainty stated by the source.

B1: library; numbered along this chain (parent)
chain: MEVVDPQQLGMFTEGELMSVGMDTFIHRIDSTEVIYQPRRKRAKLIGKYLMGDLLGEGSYGKVKEVLDSETLCRRAVKILKKKKLRRIPNGEANVKKEIQLLRRLRHKNVIQLVDVLYNEEKQKMYMVMEYCVCGMQEMLDSVPEKRFPVCQAHGYFCQLIDGLEYLHSQGIVHKDIKPGNLLLTTGGTLKISDLGVAEALHPFAADDTCRTSQGSPAFQPPEIANGLDTFSGFKVDIWSAGVTLYNITTGLYPFEGDNIYKLFENIGKGSYAIPGDCGPPLSDLLKGMLEYEPAKRFSIRQIRQHSWFRKKHPPAEAPVPIPPSPDTKDRWRSMTVVPYLEDLHGADEDEDLFDIEDDIIYTQDFTVPGQVPEEEASHNGQRRGLPKAVCMNGTEAAQLSTKSRAEGRAPNPARKACSASSKIRRLSACKQQ

Variants of: B1
Experiment: STK11 functional score (HeLa growth suppression), rescaled enrichment; synonymous median = 1, nonsense median = 0 (normalised score)
Conditions: with HeLa; variant type: missense
Method in brief: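 In HeLa, Bxb1 integrated POPCode codon-randomised libraries of codon-optimised STK11 at an AAVS1 landing pad; three regions were each transfected three times. Integrants, marked as BFP-negative and mCherry-positive, were FACS-sorted 4–5 days after electroporation and expanded for about two weeks before tiled gDNA amplicons were sequenced on NextSeq (~2 million reads per tile). Each functional score is a post/pre-selection log ratio corrected to wild type, rescaled to the synonymous and nonsense medians, and merged across codons and replicate transfections, with error estimated by bootstrapping.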

Variant	STK11 functional score
MEVVDPQQLGMFTEGELMSVGMDTFIHRIDSTEVIYQPRRKRAKLIGKYLMGDLLGEGSYGKVKEVLDSETLCRRAVKILKKKKLRRIPNGEANVKKEIQLLRRLRHKNVIQLVDVLYNEEKQKMYMVMEYCVCGMQEMLDSVPEKRFPVCQAHGYFCQLIDGLEYLHSQGIVHKDIKPGNLLLTTGGTLKISDLGVAEALHPFAADDTCRTSQGSPAFQPPEIANGLDTFSGFKVDIWSAGVTLYNITTGLYPFEGDNIYKLFENIGKGSYAIPGDCGPPLSDLLKGMLEYEPAKRFSIRQIRQHSWFRKKHPPAEAPVPIPPSPDTKDRWRSMTVAPYLEDLHGADEDEDLFDIEDDIIYTQDFTVPGQVPEEEASHNGQRRGLPKAVCMNGTEAAQLSTKSRAEGRAPNPARKACSASSKIRRLSACKQQ [V338A]	1.56 ± 0.27
MEVVDPQQLGMFTEGELMSVGMDTFIHRIDSTEVIYQPRRKRAKLIGKYLMGDLLGEGSYGKVKEVLDSETLCRRAVKILKKKKLRRIPNGEANVKKEIQLLRRLRHKNVIQLVDVLYNEEKQKMYMVMEYCVCGMQEMLDSVPEKRFPVCQAHGYFCQLIDGLEYLHSQGIVHKDIKPGNLLLTTGGTLKISDLGVAEALHPFAADDTCRTSQGSPAFQPPEIANGLDTFSGFKVDIWSAGVTLYNITTGLYPFEGDNIYKLFENIGKGSYAIPGDCGPPLSDLLKGMLEYEPAKRFSIRQIRQHSWFRKKHPPAEAPVPIPPSPDTKDRWRSMTVCPYLEDLHGADEDEDLFDIEDDIIYTQDFTVPGQVPEEEASHNGQRRGLPKAVCMNGTEAAQLSTKSRAEGRAPNPARKACSASSKIRRLSACKQQ [V338C]	0.965 ± 0.28
MEVVDPQQLGMFTEGELMSVGMDTFIHRIDSTEVIYQPRRKRAKLIGKYLMGDLLGEGSYGKVKEVLDSETLCRRAVKILKKKKLRRIPNGEANVKKEIQLLRRLRHKNVIQLVDVLYNEEKQKMYMVMEYCVCGMQEMLDSVPEKRFPVCQAHGYFCQLIDGLEYLHSQGIVHKDIKPGNLLLTTGGTLKISDLGVAEALHPFAADDTCRTSQGSPAFQPPEIANGLDTFSGFKVDIWSAGVTLYNITTGLYPFEGDNIYKLFENIGKGSYAIPGDCGPPLSDLLKGMLEYEPAKRFSIRQIRQHSWFRKKHPPAEAPVPIPPSPDTKDRWRSMTVDPYLEDLHGADEDEDLFDIEDDIIYTQDFTVPGQVPEEEASHNGQRRGLPKAVCMNGTEAAQLSTKSRAEGRAPNPARKACSASSKIRRLSACKQQ [V338D]	1.39 ± 0.18
MEVVDPQQLGMFTEGELMSVGMDTFIHRIDSTEVIYQPRRKRAKLIGKYLMGDLLGEGSYGKVKEVLDSETLCRRAVKILKKKKLRRIPNGEANVKKEIQLLRRLRHKNVIQLVDVLYNEEKQKMYMVMEYCVCGMQEMLDSVPEKRFPVCQAHGYFCQLIDGLEYLHSQGIVHKDIKPGNLLLTTGGTLKISDLGVAEALHPFAADDTCRTSQGSPAFQPPEIANGLDTFSGFKVDIWSAGVTLYNITTGLYPFEGDNIYKLFENIGKGSYAIPGDCGPPLSDLLKGMLEYEPAKRFSIRQIRQHSWFRKKHPPAEAPVPIPPSPDTKDRWRSMTWVPYLEDLHGADEDEDLFDIEDDIIYTQDFTVPGQVPEEEASHNGQRRGLPKAVCMNGTEAAQLSTKSRAEGRAPNPARKACSASSKIRRLSACKQQ [V337W]	0.54 ± 0.15
MEVVDPQQLGMFTEGELMSVGMDTFIHRIDSTEVIYQPRRKRAKLIGKYLMGDLLGEGSYGKVKEVLDSETLCRRAVKILKKKKLRRIPNGEANVKKEIQLLRRLRHKNVIQLVDVLYNEEKQKMYMVMEYCVCGMQEMLDSVPEKRFPVCQAHGYFCQLIDGLEYLHSQGIVHKDIKPGNLLLTTGGTLKISDLGVAEALHPFAADDTCRTSQGSPAFQPPEIANGLDTFSGFKVDIWSAGVTLYNITTGLYPFEGDNIYKLFENIGKGSYAIPGDCGPPLSDLLKGMLEYEPAKRFSIRQIRQHSWFRKKHPPAEAPVPIPPSPDTKDRWRSMTIVPYLEDLHGADEDEDLFDIEDDIIYTQDFTVPGQVPEEEASHNGQRRGLPKAVCMNGTEAAQLSTKSRAEGRAPNPARKACSASSKIRRLSACKQQ [V337I]	1.48 ± 0.16
MEVVDPQQLGMFTEGELMSVGMDTFIHRIDSTEVIYQPRRKRAKLIGKYLMGDLLGEGSYGKVKEVLDSETLCRRAVKILKKKKLRRIPNGEANVKKEIQLLRRLRHKNVIQLVDVLYNEEKQKMYMVMEYCVCGMQEMLDSVPEKRFPVCQAHGYFCQLIDGLEYLHSQGIVHKDIKPGNLLLTTGGTLKISDLGVAEALHPFAADDTCRTSQGSPAFQPPEIANGLDTFSGFKVDIWSAGVTLYNITTGLYPFEGDNIYKLFENIGKGSYAIPGDCGPPLSDLLKGMLEYEPAKRFSIRQIRQHSWFRKKHPPAEAPVPIPPSPDTKDRWRSMTTVPYLEDLHGADEDEDLFDIEDDIIYTQDFTVPGQVPEEEASHNGQRRGLPKAVCMNGTEAAQLSTKSRAEGRAPNPARKACSASSKIRRLSACKQQ [V337T]	1.61 ± 0.15
MEVVDPQQLGMFTEGELMSVGMDTFIHRIDSTEVIYQPRRKRAKLIGKYLMGDLLGEGSYGKVKEVLDSETLCRRAVKILKKKKLRRIPNGEANVKKEIQLLRRLRHKNVIQLVDVLYNEEKQKMYMVMEYCVCGMQEMLDSVPEKRFPVCQAHGYFCQLIDGLEYLHSQGIVHKDIKPGNLLLTTGGTLKISDLGVAEALHPFAADDTCRTSQGSPAFQPPEIANGLDTFSGFKVDIWSAGVTLYNITTGLYPFEGDNIYKLFENIGKGSYAIPGDCGPPLSDLLKGMLEYEPAKRFSIRQIRQHSWFRKKHPPAEAPVPIPPSPDTKDRWRSMTRVPYLEDLHGADEDEDLFDIEDDIIYTQDFTVPGQVPEEEASHNGQRRGLPKAVCMNGTEAAQLSTKSRAEGRAPNPARKACSASSKIRRLSACKQQ [V337R]	0.662 ± 0.2
MEVVDPQQLGMFTEGELMSVGMDTFIHRIDSTEVIYQPRRKRAKLIGKYLMGDLLGEGSYGKVKEVLDSETLCRRAVKILKKKKLRRIPNGEANVKKEIQLLRRLRHKNVIQLVDVLYNEEKQKMYMVMEYCVCGMQEMLDSVPEKRFPVCQAHGYFCQLIDGLEYLHSQGIVHKDIKPGNLLLTTGGTLKISDLGVAEALHPFAADDTCRTSQGSPAFQPPEIANGLDTFSGFKVDIWSAGVTLYNITTGLYPFEGDNIYKLFENIGKGSYAIPGDCGPPLSDLLKGMLEYEPAKRFSIRQIRQHSWFRKKHPPAEAPVPIPPSPDTKDRWRSMTNVPYLEDLHGADEDEDLFDIEDDIIYTQDFTVPGQVPEEEASHNGQRRGLPKAVCMNGTEAAQLSTKSRAEGRAPNPARKACSASSKIRRLSACKQQ [V337N]	1.54 ± 0.17
MEVVDPQQLGMFTEGELMSVGMDTFIHRIDSTEVIYQPRRKRAKLIGKYLMGDLLGEGSYGKVKEVLDSETLCRRAVKILKKKKLRRIPNGEANVKKEIQLLRRLRHKNVIQLVDVLYNEEKQKMYMVMEYCVCGMQEMLDSVPEKRFPVCQAHGYFCQLIDGLEYLHSQGIVHKDIKPGNLLLTTGGTLKISDLGVAEALHPFAADDTCRTSQGSPAFQPPEIANGLDTFSGFKVDIWSAGVTLYNITTGLYPFEGDNIYKLFENIGKGSYAIPGDCGPPLSDLLKGMLEYEPAKRFSIRQIRQHSWFRKKHPPAEAPVPIPPSPDTKDRWRSMTGVPYLEDLHGADEDEDLFDIEDDIIYTQDFTVPGQVPEEEASHNGQRRGLPKAVCMNGTEAAQLSTKSRAEGRAPNPARKACSASSKIRRLSACKQQ [V337G]	1.13 ± 0.34
MEVVDPQQLGMFTEGELMSVGMDTFIHRIDSTEVIYQPRRKRAKLIGKYLMGDLLGEGSYGKVKEVLDSETLCRRAVKILKKKKLRRIPNGEANVKKEIQLLRRLRHKNVIQLVDVLYNEEKQKMYMVMEYCVCGMQEMLDSVPEKRFPVCQAHGYFCQLIDGLEYLHSQGIVHKDIKPGNLLLTTGGTLKISDLGVAEALHPFAADDTCRTSQGSPAFQPPEIANGLDTFSGFKVDIWSAGVTLYNITTGLYPFEGDNIYKLFENIGKGSYAIPGDCGPPLSDLLKGMLEYEPAKRFSIRQIRQHSWFRKKHPPAEAPVPIPPSPDTKDRWRSMTLVPYLEDLHGADEDEDLFDIEDDIIYTQDFTVPGQVPEEEASHNGQRRGLPKAVCMNGTEAAQLSTKSRAEGRAPNPARKACSASSKIRRLSACKQQ [V337L]	0.924 ± 0.13
MEVVDPQQLGMFTEGELMSVGMDTFIHRIDSTEVIYQPRRKRAKLIGKYLMGDLLGEGSYGKVKEVLDSETLCRRAVKILKKKKLRRIPNGEANVKKEIQLLRRLRHKNVIQLVDVLYNEEKQKMYMVMEYCVCGMQEMLDSVPEKRFPVCQAHGYFCQLIDGLEYLHSQGIVHKDIKPGNLLLTTGGTLKISDLGVAEALHPFAADDTCRTSQGSPAFQPPEIANGLDTFSGFKVDIWSAGVTLYNITTGLYPFEGDNIYKLFENIGKGSYAIPGDCGPPLSDLLKGMLEYEPAKRFSIRQIRQHSWFRKKHPPAEAPVPIPPSPDTKDRWRSMTYVPYLEDLHGADEDEDLFDIEDDIIYTQDFTVPGQVPEEEASHNGQRRGLPKAVCMNGTEAAQLSTKSRAEGRAPNPARKACSASSKIRRLSACKQQ [V337Y]	0.9 ± 0.57
MEVVDPQQLGMFTEGELMSVGMDTFIHRIDSTEVIYQPRRKRAKLIGKYLMGDLLGEGSYGKVKEVLDSETLCRRAVKILKKKKLRRIPNGEANVKKEIQLLRRLRHKNVIQLVDVLYNEEKQKMYMVMEYCVCGMQEMLDSVPEKRFPVCQAHGYFCQLIDGLEYLHSQGIVHKDIKPGNLLLTTGGTLKISDLGVAEALHPFAADDTCRTSQGSPAFQPPEIANGLDTFSGFKVDIWSAGVTLYNITTGLYPFEGDNIYKLFENIGKGSYAIPGDCGPPLSDLLKGMLEYEPAKRFSIRQIRQHSWFRKKHPPAEAPVPIPPSPDTKDRWRSMTSVPYLEDLHGADEDEDLFDIEDDIIYTQDFTVPGQVPEEEASHNGQRRGLPKAVCMNGTEAAQLSTKSRAEGRAPNPARKACSASSKIRRLSACKQQ [V337S]	0.723 ± 0.17
MEVVDPQQLGMFTEGELMSVGMDTFIHRIDSTEVIYQPRRKRAKLIGKYLMGDLLGEGSYGKVKEVLDSETLCRRAVKILKKKKLRRIPNGEANVKKEIQLLRRLRHKNVIQLVDVLYNEEKQKMYMVMEYCVCGMQEMLDSVPEKRFPVCQAHGYFCQLIDGLEYLHSQGIVHKDIKPGNLLLTTGGTLKISDLGVAEALHPFAADDTCRTSQGSPAFQPPEIANGLDTFSGFKVDIWSAGVTLYNITTGLYPFEGDNIYKLFENIGKGSYAIPGDCGPPLSDLLKGMLEYEPAKRFSIRQIRQHSWFRKKHPPAEAPVPIPPSPDTKDRWRSMTKVPYLEDLHGADEDEDLFDIEDDIIYTQDFTVPGQVPEEEASHNGQRRGLPKAVCMNGTEAAQLSTKSRAEGRAPNPARKACSASSKIRRLSACKQQ [V337K]	1.53 ± 0.18
MEVVDPQQLGMFTEGELMSVGMDTFIHRIDSTEVIYQPRRKRAKLIGKYLMGDLLGEGSYGKVKEVLDSETLCRRAVKILKKKKLRRIPNGEANVKKEIQLLRRLRHKNVIQLVDVLYNEEKQKMYMVMEYCVCGMQEMLDSVPEKRFPVCQAHGYFCQLIDGLEYLHSQGIVHKDIKPGNLLLTTGGTLKISDLGVAEALHPFAADDTCRTSQGSPAFQPPEIANGLDTFSGFKVDIWSAGVTLYNITTGLYPFEGDNIYKLFENIGKGSYAIPGDCGPPLSDLLKGMLEYEPAKRFSIRQIRQHSWFRKKHPPAEAPVPIPPSPDTKDRWRSMTPVPYLEDLHGADEDEDLFDIEDDIIYTQDFTVPGQVPEEEASHNGQRRGLPKAVCMNGTEAAQLSTKSRAEGRAPNPARKACSASSKIRRLSACKQQ [V337P]	1.58 ± 0.14
